Measurements as given in the RNAGym collection of RNA variant scans (doi:10.1073/pnas.2313332121).

B1: TPR t1 (parent)
chain: GACCAAUCUGCCCUCAGAGCUCGAGAACAUCUUCGGAUGCAGAGGAGGCAGGCUUCGGUGGCGCGAUAGCGCCAACGUCCUCAACCUCCAAUGCAUCCCACCACAUGAUGAUGCCUGAAGAGCCUUGGUUUUUUG

Variants of: B1
Assay: polymerase ribozyme fitness, log enrichment relative to wild type (log ratio); higher = more active; in vitro selection for triplet polymerase activity
Procedure, shortened: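 Mutant libraries of both subunits of a heterodimeric triplet polymerase ribozyme were PCR-built, transcribed, and selected once in triplicate, with frozen incubation at −7 °C and capture of gel-excised extended constructs on streptavidin beads before RT-PCR. Illumina sequencing of input and output libraries was filtered to genotypes with ≥10 input reads and ≥1 read per output. Fitness is the logarithm of genotype enrichment over wild-type enrichment, using inverse-variance-weighted replicate averages. The logarithm is base 2.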

Variant	polymerase ribozyme fitness (log ratio)
C13U C62U	-0.0202
G52A A84U C101U U106G U132A	-1.69
U9C C40G U55A C76A C88G	-4.6
C22A G60C A90G C123U	-5.34
G71C U78A A118G	-0.642
A37U G44A U87G A119U G128C	-3.53
C15A G117A	-2.72
A41G A90G	0.631
C31G A50C U112A	-6.45
U109G C114G	-4.93
G52A C56A U106A	-1.08
A27C G61A	-4.32
A2U G77C U116A C124A U130C	-0.208
U38G C53U C124U	0.103
A46U C73U	-1.08
A91C A111C	-2.03
U55A G57C U78C A103G C124A U125A	-4.66
U14A C22U A37U C79U A83C A84C	-5.43
U33A A37C	-4.7
C4A G93C A111U	-4.69
C72U C76A C88A U96A	-3.05
U9G A27U	-3.6
C53G C114G	-3.08
U33A C72U	-4.34

Variant	polymerase ribozyme fitness (log ratio)
G10C G36A G71A	-2.47
A2C G63A	-2.37
G60U C101U A111C	0.104
C11A G39A U54A C72A	-1.51
C3U A29G C53U G57C C86G	-4.64
U7A U9C C12U G57C	0.0479
C79G C124G U125A	-4.24
G35C C76G C99G A100C U112A G120A	-6.53
U7C G93A	-1.65
G10U C12U C22A C56U U112C	-1.17
C8G C49G A50U C79U U131C	-2.75
C49A C88G G120C	0.68
U59A C62G	-5.21
C11G A18G C97U G110A	-3.11
U7A C56A G65C G71A	-7.51
G60U C89U U92A A118U	-2.14
G57C G63A G69U	-1.39
U78C U81A U87G C123G	1.68
G39A C64U C98G A103C A111G	-7.64
G17C C49A C72U C82U C114U	-4.65
U7G C12G A37G	0.709
A18G	-1.83
A2G G110A C124A	-0.428
A108G G122U	-1.78

Variant	polymerase ribozyme fitness (log ratio)
G47U U78C	-1.44
G42A C49U C56U U130G	-3.07
A5C U112A C114A	-1.8
G45U G60C C88G	-1.14
A6C A16C G44C	-3.74
G42U C49G U112A	-0.357
C8U C22U A119U	-2.76
C11A G60U U112A A118U	0.776
C11U C89A	-2.85
C8A G42U G44A C114U	-1.01
C20A C72A C101A	-5.69
G45U C62A C89G U112A	-4.99
C22G U96C	-3.36
U30C G71U	-3.2
C86U C114A	-1.71
C56G G135A	-1.39
U78C C88A	-0.513
U32G G39A U106C	-4.98
C11G A16U C28G A121C	-0.982
C64G G120U	-6.39
C104G C114G G120A U126C U133G	-5.9
G48U G63U C86U	-1.38
C8G C15U G19A U125A	-2.55
A6U C53G C82A A83G	-0.829

Variant	polymerase ribozyme fitness (log ratio)
G69U C88G	-0.121
C40U A43U G57U G63C	-3.07
C13A A16U G71C G120C	-0.814
A46U G93A G120A G122A	-3.08
U14G G61U C89A C99G G113C C115U	-6.86
C53A C79A	-3.06
A37G G60U C72G C99A A103G C114U U129C	-7.36
C4G G44U U96A	-4.42
G63U U92A U96A G113C	-3.99
U21A C88A G110A	-4.92
U7A C8U G107C C124U	-4.43
C53A C88U C104U	0.665
U32C G71U	-1.13
C12U A18U C40U U106C C114G	-2.23
G47A C124G	0.559
C86U G110A	-2.37
U30A G39U C101A A111U A119G C123G	-6.64
A2U C40A	-3.29
A5C A24G A27G	-4.69
G25A A43G C72U A111U	-6.94
A6U C8A U129A	-1.48
C4U G60C A83U A84C C86A	-2.24
G60C U87A C101U G117A U132A	-1.89
C124U G127A G135U	-0.796

Variant	polymerase ribozyme fitness (log ratio)
C53A C56U G58A U133G	-0.438
C8A C115G	-0.0701
C3A C11U C99U	-4.11
G45U G57U C73G U78A C94A A119G	-0.559
G71U C89G	-1.88
G39U G63A A100U G120U	-2.94
G61C C70U	-4.17
G17A G57C	-2.86
U81C C85U A118G G122U C124U U129A	-3.58
C94U U129A	-1.25
C72U U132A	-0.0764
G39U C115U U131A	-2.02
A2G A91U	-1.93
A74U U112A G113C A118C G135U	-3.34
A83C U106C	-0.823
C8G G71A C82U C101A	-1.2
G52U C72U U78C A121C	1.26
C70A U81A G93A	-3.44
C13A A27C G36A	-4.52
A37C G39A G61A U112A U116G U133A	-3.64
G42C G71U G77C A100U	-3.33
C4U U9A C82A	0.0858
A18U C40A C70A A121C	-5.25
G69U G120U	1.02

Variant	polymerase ribozyme fitness (log ratio)
C20U G57A	-1.75
A41C G52A C82G C97U C101G A118U A121U	-2.61
C22G G44U G48U G63U A91C A111U	-6.95
U9A C15U A41U G60U U92C C123A	-0.568
C115A G127C	-1.67
A2G A5G U7G U21G A43C G69U C88A C101U U129A	-3.72
C70G A100U	-4.02
G10U C28G G60A C85A U131G	-4.5
C20G G23U U32A C98G C123G U131G	-6.64
C98U G117A	-2.99
A2G C12U G17C U78C C86G	-4.66
G45U C97A U112A	-5.81
C115A A119U	-1.26
G48U U59A G60U G122A C123A	-1.51
A5U G44C G60U U96G G127A U131G	-3.9
U54G C72A	-1.41
C11U A43U C53G	-2.46
C49A U55C	-1.24
U96G G120U	-0.269
G110U U125A	-0.916
G36C A37U G48C A91U C115U	-4.92
C13G U112G	-0.767
G48U A90G U112A	-2.03
G48A C70A	-2.36

Variant	polymerase ribozyme fitness (log ratio)
C8G U78A G113U C115A G120C	-2.48
A5C A24G U87C	-3.15
U96A A111G	-1.84
C49A U81C U129G	-3.78
C11A C15A G51U G71A C99A G113C	-8.01
G61U U96C	0.151
C8G C56A G77U C88G U92A G113C G122A C123G	-3.34
C13A C53U	-2
A29U C76U U78A	-2.22
C49U G61U C86A	-1.79
A16U A41C G57A A84U	-3.81
G69C U106A C124A G128A	-1.94
A2C G77U	-2.28
A2C C12A A66U C104U	-3.52
C11G A18G C49G C56U	-3.38
G42C A66G C79U A121C U133G	-1.36
G128C U131A	-1.91
G60A U106A	-0.15
U32C C97A C124U U131A	-4.33
C53U G63A	-1.18
C3U U106A	-0.258
U9G G19U A46C C56U	-3.13
G39A C62A C89G C101U	-5.16
